Patent US20210188989A1 (SYSTIMMUNE, published 2021)

T1: recombinant cynomolgus 4-1BB extracellular domain protein (cynomolgus, UniProt A9YYE7 24-186)
T1 construct: Analyte in the Octet assay
T1 sequence: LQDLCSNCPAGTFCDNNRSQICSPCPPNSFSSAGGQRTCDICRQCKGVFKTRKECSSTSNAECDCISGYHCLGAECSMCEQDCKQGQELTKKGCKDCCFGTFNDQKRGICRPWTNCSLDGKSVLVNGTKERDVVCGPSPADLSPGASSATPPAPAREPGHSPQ


Key:
[1] = biological target: T1, recombinant cynomolgus 4-1BB …; experiment: Octet BLI; chimeric IgG from transfection supernatant on anti-human Fc biosensor; recombinant cynomolgus 41BB; column kdis(1/s) Cynomolgus
From the text: (§1) The heavy and light chain expression plasmids generated from each well were transiently co-transfected to produce rabbit/human chimeric antibodies. Recombinant antibody supernatants were confirmed to contain antibodies specific for human and cynomolgus 4-1BB using bio-layer interferometry analysis on a ForteBio Octet Red 96 instrument. Anti-human Fc biosensors (Pall ForteBio) were used to capture antibodies in the supernatants. Association to human or cynomolgus 4-1BB was observed by real-time interferometry by placing the biosensors in wells containing recombinant human or cynomolgus 4-1BB extracellular domain protein. Dissociation was measured after transfer of the biosensors into wells containing 10× kinetics buffer (Pall ForteBio). The software provided by the manufacturer was used to analyze the interferometry data. A summary of the primary BCC screening data and the corresponding screening data for 34 recombinant chimeric rabbit/human IgG antibodies is shown in FIG. 2.

[2] = biological target: T2, recombinant human 4-1BB extracellular domain protein (human, UniProt Q07011 24-186); experiment: Octet BLI; chimeric IgG from transfection supernatant on anti-human Fc biosensor; recombinant human 41BB; column kdis(1/s) Human
T2 construct: extracellular domain; Analyte in the Octet assay; also called CD137; TNFRSF9
From the text: as §1

Binder	koff [1]	koff [2]
411H11 (antibody, human IgG1, kappa, V domains shown, one of the 34 chimeric antibodies; rabbit variable regions on human IgG1 and human kappa; also called 411H11 chimeric rabbit/human IgG) VH: QSVEESGGRLVTPGTPLTLTCTVSGFTISSHHMIWVRQAPGEGLQYIGFINDGDYTYYTNWAKGRFTISRTSTTVDLKMTSLTAADTATYFCARGVDGTSYPGLWGPGTLVTVSS VL: DVVMTQTPASVSEPVRATVTIKCQASQSIGADLAWYQQKPGQPPKLLIYRASTLASGVPSRFSGSGSGTEFTLTISDLECADAATYYCQCIYYGTDDVIYHTFGGGTEVVFKR	0.0015 s⁻¹	0.001 s⁻¹
416F8 (antibody, human IgG1, kappa, V domains shown, one of the 34 chimeric antibodies; rabbit variable regions on human IgG1 and human kappa; also called 416F8 chimeric rabbit/human IgG) VH: QSLEESGGRLVTPGTPLTLTCTASGFSLSNYYMNWVRQAPGKGLEYIGIISSSGSAYYASWAKGRFTISRTSTTVDLRITSPTTEDTATYFCARGDYGMDLWGQGTLVTVSS VL: AQVLTQTASSVSAPVGGTVTISCQSSQTVYNNNLLSWYQQKPGQRPKLLIYYASTLAFGVPSRFKGSGSGTEFTLTISDLECDDAATYFCQGGYSGWIYVFGGGTEVEVKR	0.003 s⁻¹	0.0043 s⁻¹
420H5 (antibody, human IgG1, kappa, V domains shown, one of the 34 chimeric antibodies; rabbit variable regions on human IgG1 and human kappa; also called 420H5 chimeric rabbit/human IgG) VH: QSLEESGGDLVKPGASLTLTCTASGFSFSSNYWICWVRQAPGKGLEWIACIYVGSSGDTYYASWAKGRFTISKTSSTTVTLQMTSLTAADTATYFCARDSSSYYMFNLWGQGTLVTVSS VL: ALVMTQTPASVSAAVGGTVTINCQASEDIDTYLAWYQQKPGQPPKLLIFYASDLASGVPSRFKGSGSGTEFTLTISGVQCDDAATYYCQGGYYTSSADTRGAFGGGTEVVVKR	0.0023 s⁻¹	0.0013 s⁻¹
413F3 (antibody, human IgG1, kappa, V domains shown, one of the 34 chimeric antibodies; rabbit variable regions on human IgG1 and human kappa; also called 413F3 chimeric rabbit/human IgG) VH: QSLEESGGDLVKPEGSLTLTCTGSGIDFSSNYMCWVRQAPGKGLEWIACIYGDSSDNSYSASWAKGRFTISKTSSTTVTLQMTSLTAADTATYFCARSGYSYLGYFNLWGPGTLVTVSS VL: DVVMTQTPASVEAAVGGTVTIKCQASQSIYSNLAWYQQKPGQPPKLLIYSTSTLASGVPSRFSGSGSGTEFTLTISDLECADAATYYCQNYYGSSTDSYGNPFGGGTEVVFKR	0.00079 s⁻¹	0.00054 s⁻¹

Other lines, results leading:

koff [1]	koff [2]	Binder
0.0018 s⁻¹	0.0011 s⁻¹	472E4 (antibody, human IgG1, kappa, V domains shown, one of the 34 chimeric antibodies; rabbit variable regions on human IgG1 and human kappa; also called 472E4 chimeric rabbit/human IgG) VH: QSLEESGGRLVTPGGSLTLTCTVSGFSLNNNAISWVRQAPGKGLEWVAIIQNTGTTDYARWAKGRFTISKTSTTVDLKINSPTTEDTATYFCGRGYGFESELVIWGPGTLVTVSS VL: AAVLTQTPSSTSAAVGGTVTISCQSSQSVYNNNALAWYQKKPGQPPKLLIYLASTLASGVPSRFSGSGSGTQFTLTISDLECDDAATYYCLGVYNDDVDNGFGGGTEVVFKR
0.0014 s⁻¹	0.001 s⁻¹	470C6 (antibody, human IgG1, kappa, V domains shown, one of the 34 chimeric antibodies; rabbit variable regions on human IgG1 and human kappa; also called 470C6 chimeric rabbit/human IgG) VH: QSLEEAGGDLVKPGASLTLTCTASGFSFTSSYYMCWVRQAPGKGLEWIACIYTGSSGSTYYANWAKGRFTISKTSSTTVTLQMTSLTAADTATYFCARDSSSYYMFNLWGQGTLVTVSS VL: ALVMTQTPASVSAAVGGTVTINCQASEDIDNYLAWYQQKPGQPPKLLIFYASDLASGVPSRFSGSGSGTQFTLTISGVQCDDAATYYCQGGYYTSSTDTRGAFGGGTEVVVKR
0.0016 s⁻¹	0.0014 s⁻¹	418H5 (antibody, human IgG1, kappa, V domains shown, one of the 34 chimeric antibodies; rabbit variable regions on human IgG1 and human kappa; also called 418H5 chimeric rabbit/human IgG) VH: QSLEESGGRLVTPGTPLTLTCTVSGIDLSAYHMSWVRQAPGKGLEYIGMIGSSGTIHYANWAKGRFTISKTSTTVDLKITSPTTEDTATYFCARDSYNSDYAFNLWGPGTLVTVSS VL: AQVLTQTPASVSATVGSTVTISCQSSPSVYKNNQLAWYQQKPGQPPKLLIYLASTLASGVPSRFKGSGSGTEFTLTISDLECADAATYYCAGGYSSSSDTAFGGGTEVEVKR
0.0026 s⁻¹	0.0021 s⁻¹	466F6 (antibody, human IgG1, kappa, V domains shown, one of the 34 chimeric antibodies; rabbit variable regions on human IgG1 and human kappa; also called 466F6 chimeric rabbit/human IgG) VH: RSLEESGGRLVTPGTPLTLTCTASGFTISSYHMQWVRQAPGKGLEYIGTISSGGNVYYASWARGRFTISRPSSTTVDLKMTSLTTEDTATYFCARDSGYSDPMWGPGTLVTVSS VL: DVVMTQTPASVSEPVGGTVTIKCQASQNIRTYLSWYQQKPGQRPKLLIYAAANLASGVPSRFSGSRSGTEFTLTISDLECADAATYYCQCTYLGTDYVGGAFGGGTEVEFKR
